Test results from PMC11346345 (Cell reports, 2024).

Legend:
Assay in all cases: SPR
[1] = molecular target: recombinant GP38 of CCHFV 200406546-Turkey (Crimean-Congo hemorrhagic fever virus, …, UniProt A0A0U2SQZ0, strain)
[2] = molecular target: recombinant GP38 of CCHFV Oman-199809166 (Crimean-Congo hemorrhagic fever virus, …, UniProt A0A0U3C6Q7, strain)
[3] = molecular target: recombinant GP38 of CCHFV Kosova-Hoti (Crimean-Congo hemorrhagic fever virus, …, UniProt B2BSL7, strain)

Measured: Kd

B1: ADI-58048 IgG (antibody, V domains shown)
VH: QLQLQESGPGLVKPSETLSLTCTVSGGSITTSHYYWGWIRQPPGKGLEWVGSMYYSGGIYYNPSLKGRVTISVDTSKNQFSLKLSSVTAADTAVYYCALADAPDDAFDIWGQGTMVTVSS
VL: DIQMTQSPSSLSAFVGDRVTITCRASQSISSYLNWYQQKPGKAPKLLIYAASTLQSGVPSRFSGSGSGTDFTLTISSLQSEDFATYYCQESYSIPFTFGPGTKVDIK
< 0.398 nM: all assays above
